The source of these data is patent US6709650B1, “Spray-dried microparticles and their use as therapeutic vehicles” (Elam Drug Delivery Limited, priority 1991, dated 2004).

For data set [1] the following is noted: soluble HSA microcapsules dissolved in water or extracted; TLC or HPLC.
Description: The beclomethasone was extracted from the microcapsules by the precipitation of the HSA in 10% TCA, and the supernatant was extracted into ethanol. The ethanol extract was analysed using HPLC, at a wavelength 242 nm.
The soluble microcapsules thus made were sampled, characterised and analysed for drug content.
In data set [2] the target is T1, trypsin (Bos taurus, UniProt P00760).
T1 construct: gene PRSS1
T1 sequence (P00760 24-246): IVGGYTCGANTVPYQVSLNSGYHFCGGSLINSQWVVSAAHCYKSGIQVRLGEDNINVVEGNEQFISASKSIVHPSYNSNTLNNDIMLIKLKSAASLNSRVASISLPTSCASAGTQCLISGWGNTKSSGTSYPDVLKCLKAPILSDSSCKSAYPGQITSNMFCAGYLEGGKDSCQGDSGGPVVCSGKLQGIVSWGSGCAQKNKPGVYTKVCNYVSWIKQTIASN
Description: Trypsin inhibitory activity of spray-dried alpha-1 antitrypsin vs freeze dried starting material. The data set is classed as biochemical. The settings on record: within the experimental error. The protocol:
(§1) Alpha-1 antitrypsin derived from human serum was spray-dried under conditions similar to Example 1 with an inlet temperature of 150° C. and an outlet temperature of 80° C. In all other respects the conditions for drying were the same as Example 1. […] The microparticles were dissolved in aqueous medium and analysed for retention of protein structure and normal trypsin inhibitory activity, then compared to the original freeze dried starting material.

The nature of data set [3]: Structural integrity of protein after spray-drying (gel filtration, tryptic peptide mapping, reverse phase, capillary electrophoresis). Particulars: microparticles dissolved in aqueous medium, compared with original material. It is filed as physicochemical. The protocol:
Under the conditions described, with a nozzle pressure of 7.5 bar, microparticles were produced with a particle size of 4.7 μm. These soluble microparticles were smooth and spherical with less than 1% of the particles over a particle size of 6 μm. The microparticles were dissolved in aqueous medium and the molecular weight of the HSA determined by gel filtration chromatography. The resultant chromatograms for the original and spray-dried HSA are shown (FIG. 1).
as §1

With `C[C@H]1C[C@H]2[C@@H]3CCC4=CC(=O)C=C[C@]4(C)[C@@]3(Cl)[C@@H](O)C[C@]2(C)[C@@]1(O)C(=O)CO` [beclomethasone], in data set [1], the “state of the active compound on dissolution of the microcapsules” value is “majority of the active compound was in the free state”.
Consider “Alpha-1 antitrypsin: Alpha-1 antitrypsin derived from human serum, spray-dried to soluble microparticles of mean size 4.5 μm”, for which, in data set [2], the “retention of inhibitory activity after spray-drying” value was “full retention of inhibitory activity”. For the same compound, the “structural change of the protein after spray-drying” value in data set [3] is “no significant structural changes”.
